Square brackets hold non-standard residues; d marks the D form. Primed or numbered codes have the meaning given here. Lys(N3) = [N-]=[N+]=NCCCC[C@H](N)C(=O)O; prA″ = not defined here
Legend:
[1] = biological target: T1, human matrix metalloproteinase 8 (MMP8) (Homo sapiens, UniProt P22894); test: Cleavage of peptide-linked DX tile dimer by MMP8, native PAGE; type: biochemical; settings: 4 ng protein, incubation for 48 h at 37° C. in PBS
T1 construct: purchased PerkinElmer
Excerpt: As previously mentioned, one of our goals for these DPD triblock molecules is to use them as enzymatically-cleavable latches for a DNA nanostructure, e.g. to close the lid of a DNA origami box or “nano-bot”. To probe this effect, we used our DPD triblock to link together two model DNA nanostructures: double crossover (“DX” tiles), defined nanoscale objects 14 nm in length and 4 nm wide. DX tiles are composed of five unique strands—two edge strands, one central strand, and two crossover strands—and we designed two tiles that would have DNA1 and DNA2 as respective crossover strands (see FIG. 3A and Examples for tile design and strand composition). We surmised that upon annealing (95-4° C., over 2 h) the constituent strands for these tiles with the DNA1-MMPpep-DNA2 conjugate both tiles would form simultaneously, with the full hybridization of DNA1 and DNA2 into the corresponding tiles breaking the DPD hairpin. Addition of MMP8 to the DX tile dimer should cleave MMPpep, and restore the two separate DNA nanostructures.
We probed this system by native (non-denaturing) PAGE, FIG. 3A. Lanes 1 and 2 show the annealed DX tile with DNA2 incorporated, and the second DX tile with DNA1-MMPpep-(prA) respectively. […]
Polyacrylamide gel electrophoresis (PAGE). […] DX tiles were analyzed using 6% native polyacrylamide gels, with 1×TAE containing 12.5 mM Mg^2+ as a running buffer, at 200 V for 160 min.

integrin = settings: cyclic conformation approximating presentation on fibronectin; cited from earlier work

T1 sequence (P22894 101-467): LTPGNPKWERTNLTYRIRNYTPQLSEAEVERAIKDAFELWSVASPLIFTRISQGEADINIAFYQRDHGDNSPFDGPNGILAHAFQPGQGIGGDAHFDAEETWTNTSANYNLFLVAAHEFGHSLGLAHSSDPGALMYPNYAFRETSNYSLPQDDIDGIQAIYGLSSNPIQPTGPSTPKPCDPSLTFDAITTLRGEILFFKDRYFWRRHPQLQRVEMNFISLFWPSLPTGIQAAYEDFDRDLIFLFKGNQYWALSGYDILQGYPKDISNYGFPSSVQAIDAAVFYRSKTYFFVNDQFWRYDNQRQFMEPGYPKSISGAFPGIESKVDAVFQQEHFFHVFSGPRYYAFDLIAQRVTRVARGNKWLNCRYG

Substance | cleavage of DX tile dimer to individual tiles after addition of MMP8 [1] | increase in binding efficiency on constraining in a cyclic conformation (integrin)
(prA)GQGIPQGWGG(azK) ({prA″}-GQGIPQGWGG[Lys(N3)]-NH2; not fully specified; printed as (prA)GQGIPQGWGG(azK); reading uncertain) [MMPpep-scram, tested as linker of a tile dimer] | did not show any cleavage to individual tiles | –
RGDS | – | several orders of magnitude

From US12673115B2, “Nucleic acid-peptide-nucleic acid conjugate molecules and methods of making the same” (ARIZONA BOARD OF REGENTS ON BEHALF OF ARIZONA STATE …, priority 2021, dated 2026)
